Results: patent publication US20240109974A1 (SHANDONG SIMCERE BIOPHARMACEUTICAL, published 2024)

B1: 224-Hu1 (antibody, V domains shown)
VH: QVQLVQSGAEVKKPGASVKVSCKASGFNNKDIYMHWVRQAPGQGLEWIGRIDPATGNTKHDPKFQDRVTMTSDTSTNTVYMELSSLRSEDTAVYYCARSPYGDFGAMDYWGQGTLVTVSS
VL: DIQMTQSPSSLSASVGDRVTITCTASSSVSSNYLHWYQQKPGKAPKLWIYSTSNLPSGVPSRFSGSGSGTDFTLTISSLQPEDFATYYCHQYHRSPWTFGQGTKVEIK
notes: Humanized form of #224; also called VH8 + VL6
B2: 224-Hu7 (antibody, V domains shown)
VH: QVQLVQSGSELKKPGASVKVSCKASGFNNKDIYMHWVRQAPGQGLEWMGRIDPATGNTKHDPKFQDKAVLSSDTSVSTAYLQISSLKAEDTAVYYCARSPYGDFGAMDYWGQGTLVTVSS
VL: DIQMTQSPSSLSASVGDRVTITCTASSSVSSNYLHWYQQKPGKAPKLLIYSTSNLPSGVPSRFSGSGSGTDFTLTISSLQPEDFATYYCHQYHRSPWTFGQGTKVEIK
notes: Humanized form of #224; also called VH9 + VL10
B3: 224-Hu5 (antibody, V domains shown)
VH: QVQLVQSGSELKKPGASVKVSCKASGFNNKDIYMHWVRQAPGQGLEWMGRIDPATGNTKHDPKFQDKAVLSSDTSVSTAYLQISSLKAEDTAVYYCARSPYGDFGAMDYWGQGTLVTVSS
VL: DIQMTQSPSSLSASVGDRVTITCTASSSVSSNYLHWYQQKPGKAPKLLIYSTSNLPSGVPSRFSGSGSGTDYSLTISSLQPEDFATYYCHQYHRSPWTFGQGTKVEIK
notes: Humanized form of #224; also called VH9 + VL9
B4: 224-Hu2 (antibody, V domains shown)
VH: QVQLVQSGSELKKPGASVKVSCKASGFNNKDIYMHWVRQAPGQGLEWMGRIDPATGNTKHDPKFQDKAVLSSDTSVSTAYLQISSLKAEDTAVYYCARSPYGDFGAMDYWGQGTLVTVSS
VL: DIQMTQSPSSLSASVGDRVTITCTASSSVSSNYLHWYQQKPGSSPKLWIYSTSNLPSGVPSRFSGSGSGTDFTLTISSLQPEDFATYYCHQYHRSPWTFGQGTKVEIK
notes: Humanized form of #224; also called VH9 + VL7
B5: 224-Hu6 (antibody, V domains shown)
VH: QVQLVQSGAEVKKPGASVKVSCKASGFNNKDIYMHWVRQAPGQGLEWIGRIDPATGNTKHDPKFQDRVTMTSDTSTNTVYMELSSLRSEDTAVYYCARSPYGDFGAMDYWGQGTLVTVSS
VL: DIQMTQSPSSLSASVGDRVTITCTASSSVSSNYLHWYQQKPGSSPKLWIYSTSNLPSGVPSRFSGSGSGTDFTLTISSLQPEDFATYYCHQYHRSPWTFGQGTKVEIK
notes: Humanized form of #224; also called VH8 + VL7
B6: 224-Hu4 (antibody, V domains shown)
VH: QVQLVQSGSELKKPGASVKVSCKASGFNNKDIYMHWVRQAPGQGLEWMGRIDPATGNTKHDPKFQDKAVLSSDTSVSTAYLQISSLKAEDTAVYYCARSPYGDFGAMDYWGQGTLVTVSS
VL: DIQMTQSPSSLSASVGDRVTITCTASSSVSSNYLHWYQQKPGKAPKLWIYSTSNLPSGVPSRFSGSGSGTDFTLTISSLQPEDFATYYCHQYHRSPWTFGQGTKVEIK
notes: Humanized form of #224; also called VH9 + VL6
B7: 224-Hu3 (antibody, V domains shown)
VH: QVQLVQSGSELKKPGASVKVSCKASGFNNKDIYMHWVRQAPGQGLEWMGRIDPATGNTKHDPKFQDKAVLSSDTSVSTAYLQISSLKAEDTAVYYCARSPYGDFGAMDYWGQGTLVTVSS
VL: DIQMTQSPSSLSASVGDRVTITCTASSSVSSNYLHWYQQKPGKAPKLLIYSTSNLPSGVPSRFSGSGSGTDFTLTISSLQAEDAATYYCHQYHRSPWTFGQGTKVEIK
notes: Humanized form of #224; also called VH9 + VL8

Tests used:
[1] = biological target: T1, human TNFR2 (Novoprotein, Cat #C830) (human, UniProt P20333 23-257, limits assumed); assay: competition ELISA, competitor human TNFα-Biotin; IC50 against 224-WT
T1 construct: construct not described; also called human TNFR2 protein
T1 sequence (looked up): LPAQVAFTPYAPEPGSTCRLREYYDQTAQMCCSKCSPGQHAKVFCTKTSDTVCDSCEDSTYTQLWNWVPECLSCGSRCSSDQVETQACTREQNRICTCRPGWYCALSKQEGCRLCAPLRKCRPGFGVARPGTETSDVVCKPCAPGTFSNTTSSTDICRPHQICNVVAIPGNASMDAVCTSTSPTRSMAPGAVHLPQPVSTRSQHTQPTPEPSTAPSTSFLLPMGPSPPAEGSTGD
Description: 1 μg/ml human TNFR2 (Novoprotein, Cat #C830) was pre-coated with 100 μl/well […] in an ELISA plate. All the test TNFR2 antibodies were subjected to 2.5-fold gradient dilution from the highest concentration of 30 μg/ml; the diluted antibodies were mixed with 15 ng/ml human TNFα-Biotin (Acro Biosystem, Cat #TNA-H82E3) in equal volume, respectively; the resulting mixture was added to the ELISA plate at 100 μl/well, and incubated with shaking at room temperature for 2.0 hours. The plate was washed, and then a Streptavidin-HRP working solution (diluted at 1:10000) was added at 100 μl/well, and the mixture was incubated with shaking at room temperature for 40 minutes. The plate was washed again, and then the substrate TMB of HRP was added to develop colour. A stop solution was added to stop the reaction, and then a microplate reader (MD 13) was used to read the absorbance value. The inhibitory curve of an antibody was drawn with antibody concentration as the abscissa and corresponding OD value as the ordinate, and fitted with four parameters (GraphPad Prism9) to calculate the IC50 value. The smaller the IC50 value, the stronger the ability of an antibody to inhibit the binding of human TNFα to human TNFR2. The blocking effect of a humanized antibody was normalized to its corresponding human-murine chimeric antibody WT. The higher the percentage value, the better the inhibitory effect of the humanized antibody.

[2] = biological target: T2, human TNFR2 on the surface of CHO-TNFR2 cells (human, UniProt P20333 23-461); assay: flow cytometry on CHO-TNFR2 cells; AUC against 224-WT
T2 construct: whole, on cells
T2 sequence (looked up): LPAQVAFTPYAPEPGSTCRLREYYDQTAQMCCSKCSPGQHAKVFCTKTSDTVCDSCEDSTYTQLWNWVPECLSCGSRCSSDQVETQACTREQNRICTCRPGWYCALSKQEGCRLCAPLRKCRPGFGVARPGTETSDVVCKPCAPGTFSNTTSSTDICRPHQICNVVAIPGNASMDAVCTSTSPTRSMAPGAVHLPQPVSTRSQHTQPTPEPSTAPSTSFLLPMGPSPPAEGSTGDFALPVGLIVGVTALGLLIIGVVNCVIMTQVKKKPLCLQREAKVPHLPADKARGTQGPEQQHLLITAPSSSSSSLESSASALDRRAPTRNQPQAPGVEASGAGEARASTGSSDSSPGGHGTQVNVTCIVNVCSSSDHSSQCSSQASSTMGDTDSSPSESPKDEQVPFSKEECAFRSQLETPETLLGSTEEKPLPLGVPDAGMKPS
Description: The transfected full-length plasmid of human TNFR2 was purchased from Sino Biological (Cat #HG10417-UT, NCBI Ref Seq: NM_001066.2). The experiment was conducted at a cell density within 80%. The cell medium was discarded; the cells were rinsed with PBS, and digested with 1 ml trypsin for 2 minutes; the digestion was stopped with a Ham's F12 complete medium containing 10% FBS, and then a cell suspension was made. The cell suspension was counted, and then an appropriate amount of cell suspension was centrifuged at 350×g; the supernatant was discarded; a corresponding volume of blocking solution (10% FBS+PBS) at a density of 1×10⁷ cells/ml was added to resuspend the cells, and the mixture was incubated at 4° C. for 30 minutes. After the incubation, the mixture was centrifuged at 350×g to remove the supernatant, and the cells were resuspended in a staining buffer (2% FBS+PBS) to a density of 2×10⁶ cells/ml, and spread onto a 96-well plate, with 50 μl of cell suspension added to each well for later use. The antibody was diluted with PBS for 10-fold gradient dilution from the highest concentration of 20 μg/m (twice the concentration); the diluted antibody was added to the well containing 50 μl of cell suspension, and placed on a microplate shaker for shaking at 500 rpm for 1 minute, so that the antibody was fully mixed with the cells; the mixture was incubated at 4° C. for 1 h. After the incubation, the cells were washed twice with the staining buffer, with 100 μl per well, and centrifuged at 350-g for 5 minutes, and the supernatant was discarded. The PE goat anti-Human IgG Fc antibody (ebioscience, Cat #12-4998-82) was diluted 250-fold with the staining buffer, with a volume of 100 μl per well added to the washed cell wells; the mixture was mixed evenly, and stained at 4° C. for 30 minutes. After the staining, similarly, the cells were washed twice with the staining buffer; finally, the cells were resuspended in 200 μl of staining buffer; signals were detected by a flow cytometer (Thermo Attune NxT). The stronger the signal, the stronger the binding ability of an antibody to TNFR2. The binding curve of an antibody was drawn with antibody concentration as the abscissa and corresponding mean fluorescence intensity (MFI) fold as the ordinate, and fitted with four parameters (GraphPad Prism9) to calculate the EC50 value.

| Binder | % Relative activity (WT antibody/test antibody) [1] | % Relative activity (Test antibody/WT antibody) [2] |
| --- | --- | --- |
| B1 | 106% | 96.2% |
| B2 | 106% | 91% |
| B3 | 93.1% | 88.9% |
| B4 | 121% | 101% |
| B5 | 115% | 90.4% |
| B6 | 105% | 93.1% |
| B7 | 120% | 101% |
